# Reference: the supplement of paper PMC6757056
# ± gives the standard deviation of the averaged measurements.
# B1: library; a variant is named by its letters at N, in order (parent)
# chain: GCUGUCACCGGUGUAUUACCCUAGUGGUCGACCGGUCUGAUGAGUCUNNNNNNAGACGAAACAGC
# Legend:
# hypoxanthine [1] = variants of: B1; experiment: normalized RNA/DNA level with ligand (relative to sTRSVctl = 100) (log10 (% of sTRSVctl)); ligand: hypoxanthine (xanthine aptamer); higher = less ribozyme self-cleavage, higher mRNA level; details: ligand concentration (+) RNA-Seq: 5 mM, HEK293T, reporter: mCherry (pCS4076), ligand present: yes
# Procedure, shortened: (§1)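 Total RNA, extracted with EDTA 72 h after HEK293T cells were transfected with 4 µg per 6-well well of reporter-linked ribozyme switch library plasmids, was reverse-transcribed, amplified, barcoded and sequenced. Ligand, if used, was added 1 h before transfection. RNA level was derived from RNA reads divided by DNA reads and normalized to a spiked-in non-cleaving sequence or to the top sequences. This was multiplied by 100 and log10-transformed, with the top set of 25 sequences and a ≥100 DNA read minimum.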
# hypoxanthine [2] = variants of: B1; experiment: normalized RNA/DNA level without ligand (relative to sTRSVctl = 100) (log10 (% of sTRSVctl)); ligand: hypoxanthine (xanthine aptamer); higher = less ribozyme self-cleavage, higher mRNA level; details: HEK293T, reporter: mCherry (pCS4076), ligand present: no
# Procedure, shortened: as §1
Variant,normalized RNA/DNA level with ligand (log10) (hypoxanthine [1]),normalized RNA/DNA level without ligand (log10) (hypoxanthine [2])
AGUAUU,1.922 ± 0.015,1.86 ± 0.037
AGUAUC,1.96 ± 0.044,1.931 ± 0.013
GGGGGG,1.94 ± 0.03,1.65 ± 0.049
GGGGGA,1.8897 ± 0.00058,1.77 ± 0.1
AGUCGC,1.945 ± 0.016,1.814 ± 0.016
GGGUCA,1.99 ± 0.068,1.91 ± 0.032
GGGUCU,1.98 ± 0.054,1.93 ± 0.037
GGGUCG,1.99 ± 0.02,1.78 ± 0.051
GGUGGG,1.9 ± 0.028,1.47 ± 0.056
GGUGGU,1.96 ± 0.084,1.86 ± 0.061
GGUAGA,1.894 ± 0.015,1.41 ± 0.058
UGUGCU,1.92 ± 0.0065,1.93 ± 0.057
UGUGCA,1.92 ± 0.031,1.86 ± 0.022
UGUGCC,1.984 ± 0.0044,1.946 ± 0.019
AGUACU,1.897 ± 0.0094,1.89 ± 0.043
AGUACC,1.94 ± 0.069,1.87 ± 0.03
AGUACA,1.87 ± 0.071,1.76 ± 0.036
GGUCUG,1.87 ± 0.06,1.71 ± 0.029
GGUCUC,2.006 ± 0.016,1.96 ± 0.037
GGUCUU,1.933 ± 0.018,1.94 ± 0.025

Variant,normalized RNA/DNA level with ligand (log10) (hypoxanthine [1]),normalized RNA/DNA level without ligand (log10) (hypoxanthine [2])
GGUGCA,1.92 ± 0.043,1.88 ± 0.05
CGGUAC,1.88 ± 0.03,1.54 ± 0.084
CGUAUU,1.96 ± 0.026,1.732 ± 0.015
CGUAUG,1.91 ± 0.035,1.84 ± 0.0095
CGUAUC,1.93 ± 0.07,1.902 ± 0.018
AGGGAU,1.89 ± 0.051,1.713 ± 0.0045
UGUCCA,1.89 ± 0.061,1.88 ± 0.057
UGUCCG,1.925 ± 0.0047,1.8 ± 0.017
GGUGUU,1.97 ± 0.051,1.88 ± 0.03
GGUGUC,1.916 ± 0.0061,1.846 ± 0.018
AGUUGA,1.915 ± 0.0047,1.63 ± 0.032
AGUUGU,1.93 ± 0.043,1.63 ± 0.076
CGUUAG,1.944 ± 0.01,1.77 ± 0.17
CGUUAC,1.91 ± 0.082,1.717 ± 0.0087
CGUUAU,1.916 ± 0.006,1.753 ± 0.011
AGUUCU,1.8964 ± 0.00099,1.86 ± 0.056
AGUUCC,1.922 ± 0.0092,1.886 ± 0.0063
AGUUCG,1.857 ± 0.017,1.43 ± 0.021
AGUCCA,1.95 ± 0.05,1.868 ± 0.015
AGUCCC,1.94 ± 0.026,1.931 ± 0.012

Variant,normalized RNA/DNA level with ligand (log10) (hypoxanthine [1]),normalized RNA/DNA level without ligand (log10) (hypoxanthine [2])
AGUCCG,1.9 ± 0.09,1.528 ± 0.0051
GGUCCU,1.941 ± 0.017,1.96 ± 0.061
GGUCCC,1.92 ± 0.05,1.902 ± 0.0045
GGUCCG,2.01 ± 0.061,1.829 ± 0.018
GGGGUC,1.94 ± 0.025,1.84 ± 0.03
GGGGUG,1.95 ± 0.027,1.562 ± 0.0074
GGGGUU,1.98 ± 0.037,1.96 ± 0.034
CGGGUG,1.893 ± 0.013,1.7 ± 0.05
CGGGUC,2.01 ± 0.05,1.946 ± 0.017
CGUCAU,1.931 ± 0.0026,1.92 ± 0.029
CGUCAC,1.96 ± 0.044,1.92 ± 0.024
AGGGCU,1.99 ± 0.027,1.874 ± 0.018
AGGGCC,1.98 ± 0.024,1.98 ± 0.04
GGGUGU,1.9307 ± 0.0015,1.81 ± 0.062
CGUGUU,1.97 ± 0.054,1.89 ± 0.071
CGUGUC,1.947 ± 0.015,1.94 ± 0.039
CGUGUA,1.93 ± 0.024,1.68 ± 0.042
CGUGUG,1.903 ± 0.015,1.75 ± 0.08
